Source: article PMC9858521 (Science Advances, 2023)
Ends that are not written are not given here. * marks the point of attachment. Biotin = O=C1N[C@H]2[C@H](CS[C@H]2CCCCC(=O)*)N1

Legend:
[1] = target: T1, FLAG-γ1-COP (N-terminal FLAG-tagged human γ1-COP) (human, UniProt Q9Y678 1-874); assay: pull-down
T1 sequence (looked up): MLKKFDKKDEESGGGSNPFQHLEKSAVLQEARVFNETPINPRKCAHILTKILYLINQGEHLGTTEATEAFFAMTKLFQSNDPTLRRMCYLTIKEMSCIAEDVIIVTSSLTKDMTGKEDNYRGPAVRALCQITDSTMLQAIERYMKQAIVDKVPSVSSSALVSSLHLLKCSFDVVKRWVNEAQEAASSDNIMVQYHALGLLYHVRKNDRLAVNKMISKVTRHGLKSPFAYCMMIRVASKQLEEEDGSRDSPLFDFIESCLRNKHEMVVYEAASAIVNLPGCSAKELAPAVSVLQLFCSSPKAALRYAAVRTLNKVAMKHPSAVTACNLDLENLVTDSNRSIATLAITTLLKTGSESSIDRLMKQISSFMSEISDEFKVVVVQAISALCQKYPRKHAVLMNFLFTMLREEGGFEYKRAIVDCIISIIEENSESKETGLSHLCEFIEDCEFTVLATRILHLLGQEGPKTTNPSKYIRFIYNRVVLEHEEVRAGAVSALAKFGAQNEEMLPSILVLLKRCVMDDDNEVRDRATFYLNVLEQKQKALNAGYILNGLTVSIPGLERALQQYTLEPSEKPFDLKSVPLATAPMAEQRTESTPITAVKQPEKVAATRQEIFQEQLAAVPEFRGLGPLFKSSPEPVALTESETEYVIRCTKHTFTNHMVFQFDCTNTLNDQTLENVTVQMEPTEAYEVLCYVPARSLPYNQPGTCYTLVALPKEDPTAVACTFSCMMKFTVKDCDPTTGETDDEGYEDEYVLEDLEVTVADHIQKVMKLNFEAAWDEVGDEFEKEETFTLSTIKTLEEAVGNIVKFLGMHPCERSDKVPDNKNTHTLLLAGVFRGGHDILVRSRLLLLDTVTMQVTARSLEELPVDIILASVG

[2] = target: T1, FLAG-γ1-COP (N-terminal FLAG-tagged …); assay: co-IP

Biotin-TGIRYSRIGNKQTL [biotin-tagged WT HPV16 L2 peptide (residues T299 to L312)]
binding result [1]: binds

B1: HA-(Δ1–67) L2-3xFLAG (domain or fragment, HPV16, UniProt P03107 68-473, looked up)
chain: GRTGYIPLGTRPPTATDTLAPVRPPLTVDPVGPSDPSIVSLVEETSFIDAGAPTSVPSIPPDVSGFSITTSTDTTPAILDINNTVTTVTTHNNPTFTDPSVLQPPTPAETGGHFTLSSSTISTHNYEEIPMDTFIVSTNPNTVTSSTPIPGSRPVARLGLYSRTTQQVKVVDPAFVTTPTKLITYDNPAYEGIDVDNTLYFSSNDNSINIAPDPDFLDIVALHRPALTSRRTGIRYSRIGNKQTLRTRSGKSIGAKVHYYYDLSTIDPAEEIELQTITPSTYTTTSHAASPTSINNGLYDIYADDFITDTSTTPVPSVPSTSLSGYIPANTTIPFGGAYNIPLVSGPDIPINITDQAPSLIPIVPGSPQYTIIADAGDFYLHPSYYMLRKRRKRLPYFFSDVSLAA
binding result [2]: binds
